Results as given in paper PMC12378428.

Target: hSOX2-HMG (Homo sapiens, UniProt P48431)
Experiment: EMSA

B1: P1/P2 SOX2 binding DNA (dsDNA)
DNA 1: GGAAACAATGGA
DNA 2: TCCATTGTTTCC
B1 was tested, and the Kd was ~610 nM.
